Assay results taken from publication PMC12744750 (Plant Communications, 2025).
Ends that are not written are not given here.

B1: PLS linked to a C-terminal GFP (PLS:GFP), pro35S::PLS:GFP (peptide, UniProt Q8LLV8 1-36, looked up)
chain: MKPRLCFNFRRRSISPCYISISYLLVAKLFKLFKIH-{GFP}
modifications: cysteine pairing not given here
notes: POLARIS (PLS) peptide of Arabidopsis thaliana, gene AT4G39403; the PLS gene without the stop codon (printed as 105 bp) in pEarlyGate103; source: N. benthamiana leaves, transient expression by Agrobacterium infiltration, in protein extract; not shown: GFP, C-terminal, kept
B2: ETR1 with a C-terminal HA tag (ETR1:HA), pro35S::ETR1:HA (receptor, Arabidopsis, UniProt P49333 1-738, looked up)
chain: MEVCNCIEPQWPADELLMKYQYISDFFIAIAYFSIPLELIYFVKKSAVFPYRWVLVQFGAFIVLCGATHLINLWTFTTHSRTVALVMTTAKVLTAVVSCATALMLVHIIPDLLSVKTRELFLKNKAAELDREMGLIRTQEETGRHVRMLTHEIRSTLDRHTILKTTLVELGRTLALEECALWMPTRTGLELQLSYTLRHQHPVEYTVPIQLPVINQVFGTSRAVKISPNSPVARLRPVSGKYMLGEVVAVRVPLLHLSNFQINDWPELSTKRYALMVLMLPSDSARQWHVHELELVEVVADQVAVALSHAAILEESMRARDLLMEQNVALDLARREAETAIRARNDFLAVMNHEMRTPMHAIIALSSLLQETELTPEQRLMVETILKSSNLLATLMNDVLDLSRLEDGSLQLELGTFNLHTLFREVLNLIKPIAVVKKLPITLNLAPDLPEFVVGDEKRLMQIILNIVGNAVKFSKQGSISVTALVTKSDTRAADFFVVPTGSHFYLRVKVKDSGAGINPQDIPKIFTKFAQTQSLATRSSGGSGLGLAISKRFVNLMEGNIWIESDGLGKGCTAIFDVKLGISERSNESKQSGIPKVPAIPRHSNFTGLKVLVMDENGVSRMVTKGLLVHLGCEVTTVSSNEECLRVVSHEHKVVFMDVCMPGVENYQIALRIHEKFTKQRHQRPLLVALSGNTDKSTKEKCMSFGLDGVLLKPVSLDNIRDVLSDLLEPRVLYEGM
notes: the ETR1 cDNA in pEarlyGate301; also called ETHYLENE RESPONSE 1; source: N. benthamiana leaves, transient expression by Agrobacterium infiltration, in protein extract; not shown: HA, C-terminal, kept

Tests used:
[1] = tested on: pPLS::GUS; experiment: pPLS::GUS expression in root tips after hormone treatment; type: in vivo, Arabidopsis; details: 10 µM ACC plus 10 μM 2,4-D
Excerpt: Figure S15. The link between auxi n and et hyl ene si gnal l i ng ef f ect s on PLS transcription, and downstream ef f ect s on et hyl ene responses.
(A) Ant agoni sm between auxi n and et hyl ene on PLS expressi on.
Auxin posit ively regulates PLS gene transcription, whi l e ACC (ethylene pr ecur sor ) […]
Lef t upper panel: pPLS::GUS […]
expr ession in the Arabidopsis root tip under standard gr owt h conditions. Lef t lower panel: pPLS::PLS:GFP expr ession in the Arabidopsis root tip under standard gr owt h conditions.
Ri ght panel: pPLS::GUS expr ession in root tips treated wi t h 10 μM 2,4-D, showing ect opic […]
10 μM 2,4-D plus 10 μm ACC, showing the ant agonism of the inductive eff ect of 2,4-D on PLS::GUS expr ession. Images ar e representative of 10 independently gr own roots. […]

[2] = tested on: pPLS::PLS:GFP; experiment: PLS:GFP fluorescence in root tip after ACC treatment; type: in vivo, Arabidopsis; details: 0, 1 or 10 μM ACC, 2 or 24 hours, n = 17
Excerpt: Figur e S15. The link between auxin and ethylene signalling effects on PLS transcription, and downstr eam effects on […]
in the root tip after ACC treatment. […]
Laser settings were mai nt ai ned at 21% 488 nm 20 mW, 970 V gain.
Images are representative of 10 independetly grown roots. Scale bars […]
Lower panel: Quanti fi cati on of PLS-GFP fluorescence after ACC treatment, detected in seedlings expressing the pPLS::PLS:GFP construct. Seedling root tips at seven d.a.g were imaged by CLSM after treatment with 0, 1 or 10 μM ACC for either 2 or 24 hours.
Fl uorescence intensity in each root was measured using ImageJ and the mean intensity for each treatment was calculated. Error bars show
± 1 standard error, n = 17.

[3] = target: T1, ETR1 1-307 (Arabidopsis thaliana); experiment: MST
T1 chain: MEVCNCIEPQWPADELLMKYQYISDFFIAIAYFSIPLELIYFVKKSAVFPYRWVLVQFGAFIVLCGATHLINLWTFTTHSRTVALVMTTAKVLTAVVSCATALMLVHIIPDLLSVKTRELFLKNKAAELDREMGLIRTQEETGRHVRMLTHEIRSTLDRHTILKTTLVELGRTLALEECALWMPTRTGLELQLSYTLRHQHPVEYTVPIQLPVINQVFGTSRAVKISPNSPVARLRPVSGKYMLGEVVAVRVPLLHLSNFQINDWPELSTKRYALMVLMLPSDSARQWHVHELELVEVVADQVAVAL

[4] = target: T2, ETR1 1-598 (Arabidopsis thaliana); experiment: MST
T2 chain: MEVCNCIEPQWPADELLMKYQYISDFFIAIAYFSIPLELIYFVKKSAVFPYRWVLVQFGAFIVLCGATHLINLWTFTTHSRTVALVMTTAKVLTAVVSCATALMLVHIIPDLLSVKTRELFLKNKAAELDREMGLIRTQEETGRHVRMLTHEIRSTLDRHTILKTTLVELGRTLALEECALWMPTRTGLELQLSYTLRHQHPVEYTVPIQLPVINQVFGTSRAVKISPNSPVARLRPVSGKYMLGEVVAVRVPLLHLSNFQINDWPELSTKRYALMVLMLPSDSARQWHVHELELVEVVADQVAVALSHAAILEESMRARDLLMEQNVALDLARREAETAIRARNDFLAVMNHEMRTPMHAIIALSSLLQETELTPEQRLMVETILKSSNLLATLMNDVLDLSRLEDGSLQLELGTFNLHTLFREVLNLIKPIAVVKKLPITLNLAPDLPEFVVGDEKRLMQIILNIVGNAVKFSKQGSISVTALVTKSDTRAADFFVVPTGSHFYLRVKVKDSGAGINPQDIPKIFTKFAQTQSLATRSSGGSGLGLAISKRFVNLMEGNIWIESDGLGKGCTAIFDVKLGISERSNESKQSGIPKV

[5] = target: T3, ETR1 1-157 (Arabidopsis thaliana); experiment: MST
T3 chain: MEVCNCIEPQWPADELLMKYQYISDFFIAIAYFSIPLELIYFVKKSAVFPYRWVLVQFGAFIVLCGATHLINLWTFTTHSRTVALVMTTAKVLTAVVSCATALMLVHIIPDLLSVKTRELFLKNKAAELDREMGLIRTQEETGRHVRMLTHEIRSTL

[6] = target: T4, ETR1 1-407 (Arabidopsis thaliana); experiment: MST
T4 chain: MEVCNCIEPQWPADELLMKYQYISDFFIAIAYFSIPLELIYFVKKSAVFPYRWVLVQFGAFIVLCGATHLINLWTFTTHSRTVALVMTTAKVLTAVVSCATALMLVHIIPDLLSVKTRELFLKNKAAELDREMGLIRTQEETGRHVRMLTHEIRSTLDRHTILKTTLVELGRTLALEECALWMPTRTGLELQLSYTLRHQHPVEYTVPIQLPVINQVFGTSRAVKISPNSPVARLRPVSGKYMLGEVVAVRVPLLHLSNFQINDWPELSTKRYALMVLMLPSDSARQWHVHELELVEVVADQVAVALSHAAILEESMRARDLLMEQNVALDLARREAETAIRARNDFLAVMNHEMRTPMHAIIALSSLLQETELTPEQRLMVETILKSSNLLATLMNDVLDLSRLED

[7] = target: B2; experiment: co-IP; anti-HA beads on protein extract of N. benthamiana leaves co-expressing ETR1:HA and PLS:GFP or GFP, 3 days after infiltration; blot with anti-GFP; with 0.5 μM CuSO4 or 2 mM EDTA added to the extract; details: partners not purified
[8] = target: B1; experiment: co-IP; anti-GFP beads on protein extract of N. benthamiana leaves co-expressing PLS:GFP and ETR1:HA; blot with anti-HA; with or without EDTA; details: partners not purified

In the case of `NC1(C(=O)O)CC1` [ACC, 1-aminocyclopropane-1-carboxylic acid], the “effect on auxin-induced PLS expression” value [1] is reported as “ant agonizes the inductive eff ect s of auxin” and the “expression of PLS:GFP in root tip” value [2] is reported as “downr egulated”.

Molecule MKPRLCFNFRRRSISPCYISISYLLVAKLFKLFKIH (cysteine pairing not given here; also: fluorescently labelled) [synthetic full-length POLARIS (PLS) peptide, PLS(FL)] has a Kd [3] of 1780 nM, a Kd [4] of 2920 nM and a Kd [5] of 1520 nM. For the same molecule, the Kd [6] was 1650 nM.

For B1, the “fold co-precipitated with 0.5 μM copper sulfate against 2 mM EDTA” value [7] was ~3 fold.

In the case of B2, the “fold co-precipitated with 0.5 μM copper sulfate against 2 mM EDTA” value [8] is reported as ~3 fold.
